These results are taken from doi:10.64898/2026.08.21.746223.

Read-outs that look alike come from different tables or passages of the source.

Experiment [1] concerns the target PelC (P. aeruginosa PAO1, PA3062), outer membrane lipoprotein (Pseudomonas aeruginosa PAO1). The experiment in a line: cryo-EM structure.
Experiment [2] shares this target. The experiment in a line: cryo-EM structure. This is another data set of the same source.

Usually stoichiometry N stands for a count of units in the complex or per binding partner. Turning to “PelC (P. aeruginosa PAO1, PA3062), outer membrane lipoprotein (natural protein)”, the stoichiometry N in experiment [1] and in experiment [2] was 12 each time.
